Results as given in US20240016952A1 (published 2024).

T1: cynomolgus monkey transferrin receptor 1 (cTfR1) (cynomolgus monkey (Macaca fascicularis), UniProt Q5RDH6 89-760 (Pongo abelii entry), limits assumed)
T1 construct: Recombinant cynomolgus TfR1; also called cyTfR1; cyno TfR1
T1 chain: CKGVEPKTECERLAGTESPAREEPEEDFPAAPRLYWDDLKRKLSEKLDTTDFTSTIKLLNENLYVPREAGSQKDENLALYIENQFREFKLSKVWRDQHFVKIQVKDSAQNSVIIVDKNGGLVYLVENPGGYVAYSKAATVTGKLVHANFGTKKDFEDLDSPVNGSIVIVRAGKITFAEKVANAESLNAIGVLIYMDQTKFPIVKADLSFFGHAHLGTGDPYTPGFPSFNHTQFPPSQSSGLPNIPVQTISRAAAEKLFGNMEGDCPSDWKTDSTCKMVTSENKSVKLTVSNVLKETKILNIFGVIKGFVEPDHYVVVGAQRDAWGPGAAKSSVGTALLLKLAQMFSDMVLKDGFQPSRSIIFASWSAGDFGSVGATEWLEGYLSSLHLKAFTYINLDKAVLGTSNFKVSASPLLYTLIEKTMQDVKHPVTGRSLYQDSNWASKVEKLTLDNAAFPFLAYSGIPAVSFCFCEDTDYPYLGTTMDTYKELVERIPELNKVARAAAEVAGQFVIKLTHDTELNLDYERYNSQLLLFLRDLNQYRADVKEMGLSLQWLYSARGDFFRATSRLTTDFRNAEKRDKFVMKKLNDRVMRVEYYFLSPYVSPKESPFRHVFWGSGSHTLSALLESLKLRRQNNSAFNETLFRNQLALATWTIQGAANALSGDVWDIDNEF


Assays:
[1] = target: T1, cynomolgus monkey transferrin receptor …; test: ELISA, cyno TfR1, Fab after 9 days at 40 C
[2] = target: T1, cynomolgus monkey transferrin receptor …; test: ELISA on plate-coated cyno TfR1, unconjugated Fab
[3] = target: T1, cynomolgus monkey transferrin receptor …; test: ELISA, cyno TfR1, Fab, day 0 of thermal stability test
[4] = target: T2, human transferrin receptor 1 (hTfR1) (human, UniProt P02786 89-760); test: ELISA on plate-coated human TfR1, Fab-ASO300 conjugate
T2 construct: Recombinant human TfR1; also called huTfR1; Human TfR1
T2 sequence (P02786 89-760 limits assumed): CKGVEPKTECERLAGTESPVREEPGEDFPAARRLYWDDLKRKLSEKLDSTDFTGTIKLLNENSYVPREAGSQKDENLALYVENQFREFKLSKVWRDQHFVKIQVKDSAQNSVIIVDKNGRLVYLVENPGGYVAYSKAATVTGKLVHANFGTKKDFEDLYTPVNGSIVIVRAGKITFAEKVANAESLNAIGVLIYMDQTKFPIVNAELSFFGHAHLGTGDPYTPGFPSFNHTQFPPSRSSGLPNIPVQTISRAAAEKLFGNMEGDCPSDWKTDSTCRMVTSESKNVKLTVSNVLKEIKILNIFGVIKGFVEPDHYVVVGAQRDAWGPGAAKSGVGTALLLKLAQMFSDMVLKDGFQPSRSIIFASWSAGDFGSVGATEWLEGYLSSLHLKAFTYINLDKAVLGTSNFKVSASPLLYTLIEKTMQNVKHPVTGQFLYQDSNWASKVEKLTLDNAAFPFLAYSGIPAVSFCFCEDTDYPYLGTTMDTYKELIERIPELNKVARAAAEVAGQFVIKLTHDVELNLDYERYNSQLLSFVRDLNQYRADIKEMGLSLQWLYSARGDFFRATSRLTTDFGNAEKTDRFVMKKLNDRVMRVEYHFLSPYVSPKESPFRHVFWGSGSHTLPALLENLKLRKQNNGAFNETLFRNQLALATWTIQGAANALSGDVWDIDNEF

[5] = target: T1, cynomolgus monkey transferrin receptor …; test: ELISA on plate-coated cyno TfR1, Fab-ASO300 conjugate
[6] = target: T1, cynomolgus monkey transferrin receptor …; test: ELISA, cyno TfR1, Fab-ASO300 conjugate

Binder	Binding affinity cyno TfR1 d 9 [1]	Fab binding affinity ELISA [2]	Binding affinity cyno TfR1 d 0 [3]	Conjugate binding affinity ELISA [4]	Conjugate binding affinity ELISA [5]	DMPK oligo conjugate binding to cyno TfR1 [6]
humanized anti-TfR Fab 3M12 VH3/Vk2 (Fab, V domains shown) VH: QVQLQESGPGLVKPSQTLSLTCSVTGYSITSGYYWNWIRQPPGKGLEWMGYITFDGANNYNPSLKNRVSISRDTSKNQFSLKLSSVTAEDTATYYCTRSSYDYDVLDYWGQGTTVTVSS VL: DIQMTQSPSSLSASVGDRVTITCRASQDISNFLNWYQQKPGQPVKLLIYYTSRLHSGVPSRFSGSGSGTDFTLTISSLQPEDFATYFCQQGHTLPYTFGQGTKLEIKR	19.5 nM	9.9 nM	9.9 nM			
humanized anti-TfR Fab 3M12 VH3/Vk3 (Fab, V domains shown) VH: QVQLQESGPGLVKPSQTLSLTCSVTGYSITSGYYWNWIRQPPGKGLEWMGYITFDGANNYNPSLKNRVSISRDTSKNQFSLKLSSVTAEDTATYYCTRSSYDYDVLDYWGQGTTVTVSS VL: DIQMTQSPSSLSASVGDRVTITCRASQDISNFLNWYQQKPGQPVKLLIYYTSRLHSGVPSRFSGSGSGTDFTLTISSLQPEDFATYYCQQGHTLPYTFGQGTKLEIKR	15.6 nM	4.7 nM	4.7 nM			
humanized anti-TfR Fab 3M12 VH4/Vk2 (Fab, V domains shown) VH: QVQLQESGPGLVKPSQTLSLTCTVTGYSITSGYYWNWIRQPPGKGLEWIGYITFDGANNYNPSLKNRVSISRDTSKNQFSLKLSSVTAEDTATYYCTRSSYDYDVLDYWGQGTTVTVSS VL: DIQMTQSPSSLSASVGDRVTITCRASQDISNFLNWYQQKPGQPVKLLIYYTSRLHSGVPSRFSGSGSGTDFTLTISSLQPEDFATYFCQQGHTLPYTFGQGTKLEIKR	5.01 nM	1.4 nM	1.4 nM			
humanized anti-TfR Fab 3M12 VH4/Vk3 conjugated to DMPK-targeting oligonucleotide ASO300 (Fab, V domains shown, Fab conjugated to oligonucleotide ASO300; chain and residue not stated, Fab-oligonucleotide conjugate; The protein chains are those of the unconjugated Fab) VH: QVQLQESGPGLVKPSQTLSLTCTVTGYSITSGYYWNWIRQPPGKGLEWIGYITFDGANNYNPSLKNRVSISRDTSKNQFSLKLSSVTAEDTATYYCTRSSYDYDVLDYWGQGTTVTVSS VL: DIQMTQSPSSLSASVGDRVTITCRASQDISNFLNWYQQKPGQPVKLLIYYTSRLHSGVPSRFSGSGSGTDFTLTISSLQPEDFATYYCQQGHTLPYTFGQGTKLEIKR				1.7 nM	2.1 nM	1.85 nM
humanized anti-TfR Fab 3A4 VH3 (N54T)/Vk4 (Fab, V domains shown) VH: EVQLVQSGSELKKPGASVKVSCTASGFNIKDDYMYWVRQPPGKGLEWIGWIDPETGDTEYASKFQDRVTVTADTSTNTAYMELSSLRSEDTAVYYCTLWLRRGLDYWGQGTLVTVSS VL: DIVMTQSPLSLPVTPGEPASISCRSSKSLLHSNGYTYLFWFQQRPGQSPRLLIYRMSNLASGVPDRFSGSGSGTDFTLKISRVEAEDVGVYYCMQHLEYPFTFGGGTKVEIKR	128 nM	156 nM	156 nM			
humanized anti-TfR Fab 3A4 VH3 (N54S)/Vk4 conjugated to DMPK-targeting oligonucleotide ASO300 (Fab, V domains shown, Fab conjugated to oligonucleotide ASO300; chain and residue not stated, Fab-oligonucleotide conjugate; The protein chains are those of the unconjugated Fab) VH: EVQLVQSGSELKKPGASVKVSCTASGFNIKDDYMYWVRQPPGKGLEWIGWIDPESGDTEYASKFQDRVTVTADTSTNTAYMELSSLRSEDTAVYYCTLWLRRGLDYWGQGTLVTVSS VL: DIVMTQSPLSLPVTPGEPASISCRSSKSLLHSNGYTYLFWFQQRPGQSPRLLIYRMSNLASGVPDRFSGSGSGTDFTLKISRVEAEDVGVYYCMQHLEYPFTFGGGTKVEIKR				2.9 nM	7.8 nM	4.1 nM
humanized anti-TfR Fab 3A4 VH3/Vk4 conjugated to DMPK-targeting oligonucleotide ASO300 (Fab, V domains shown, Fab conjugated to oligonucleotide ASO300; chain and residue not stated, Fab-oligonucleotide conjugate; The protein chains are those of the unconjugated Fab) VH: EVQLVQSGSELKKPGASVKVSCTASGFNIKDDYMYWVRQPPGKGLEWIGWIDPENGDTEYASKFQDRVTVTADTSTNTAYMELSSLRSEDTAVYYCTLWLRRGLDYWGQGTLVTVSS VL: DIVMTQSPLSLPVTPGEPASISCRSSKSLLHSNGYTYLFWFQQRPGQSPRLLIYRMSNLASGVPDRFSGSGSGTDFTLKISRVEAEDVGVYYCMQHLEYPFTFGGGTKVEIKR				2.8 nM	7.6 nM	7.59 nM
humanized anti-TfR Fab 3M12 VH3/Vk2 conjugated to DMPK-targeting oligonucleotide ASO300 (Fab, V domains shown, Fab conjugated to oligonucleotide ASO300; chain and residue not stated, Fab-oligonucleotide conjugate; The protein chains are those of the unconjugated Fab) VH: QVQLQESGPGLVKPSQTLSLTCSVTGYSITSGYYWNWIRQPPGKGLEWMGYITFDGANNYNPSLKNRVSISRDTSKNQFSLKLSSVTAEDTATYYCTRSSYDYDVLDYWGQGTTVTVSS VL: DIQMTQSPSSLSASVGDRVTITCRASQDISNFLNWYQQKPGQPVKLLIYYTSRLHSGVPSRFSGSGSGTDFTLTISSLQPEDFATYFCQQGHTLPYTFGQGTKLEIKR				2.2 nM	2.9 nM	2.26 nM
humanized anti-TfR Fab 3A4 VH3 (N54T)/Vk4 conjugated to DMPK-targeting oligonucleotide ASO300 (Fab, V domains shown, Fab conjugated to oligonucleotide ASO300; chain and residue not stated, Fab-oligonucleotide conjugate; The protein chains are those of the unconjugated Fab) VH: EVQLVQSGSELKKPGASVKVSCTASGFNIKDDYMYWVRQPPGKGLEWIGWIDPETGDTEYASKFQDRVTVTADTSTNTAYMELSSLRSEDTAVYYCTLWLRRGLDYWGQGTLVTVSS VL: DIVMTQSPLSLPVTPGEPASISCRSSKSLLHSNGYTYLFWFQQRPGQSPRLLIYRMSNLASGVPDRFSGSGSGTDFTLKISRVEAEDVGVYYCMQHLEYPFTFGGGTKVEIKR				2.8 nM	4.7 nM	5.12 nM
humanized anti-TfR Fab 5H12 VH5 (C33Y)/Vk4 (Fab, V domains shown, also called 5H12 (VH4-C33Y/Vk4)) VH: QVQLVQSGAEVKKPGASVKVSCKASGYSFTDYYINWVRQAPGQGLEWMGWIYPGSGNTRYSERFKGRVTITRDTSASTAYMELSSLRSEDTAVYYCAREDYYPYHGMDYWGQGTLVTVSS VL: DIVMTQSPDSLAVSLGERATINCRASESVDGYDNSFMHWYQQKPGQPPKLLIFRASNLESGVPDRFSGSGSGTDFTLTISSLQAEDVAVYYCQQSSEDPWTFGQGTKLEIKR	0.26 nM	3.3 nM	3.3 nM			
humanized anti-TfR Fab 5H12 VH5 (C33D)/Vk4 (Fab, V domains shown) VH: QVQLVQSGAEVKKPGASVKVSCKASGYSFTDYDINWVRQAPGQGLEWMGWIYPGSGNTRYSERFKGRVTITRDTSASTAYMELSSLRSEDTAVYYCAREDYYPYHGMDYWGQGTLVTVSS VL: DIVMTQSPDSLAVSLGERATINCRASESVDGYDNSFMHWYQQKPGQPPKLLIFRASNLESGVPDRFSGSGSGTDFTLTISSLQAEDVAVYYCQQSSEDPWTFGQGTKLEIKR	0.63 nM	3.5 nM	3.5 nM			
humanized anti-TfR Fab 5H12 VH5 (C33D)/Vk4 conjugated to DMPK-targeting oligonucleotide ASO300 (Fab, V domains shown, Fab conjugated to oligonucleotide ASO300; chain and residue not stated, Fab-oligonucleotide conjugate; The protein chains are those of the unconjugated Fab) VH: QVQLVQSGAEVKKPGASVKVSCKASGYSFTDYDINWVRQAPGQGLEWMGWIYPGSGNTRYSERFKGRVTITRDTSASTAYMELSSLRSEDTAVYYCAREDYYPYHGMDYWGQGTLVTVSS VL: DIVMTQSPDSLAVSLGERATINCRASESVDGYDNSFMHWYQQKPGQPPKLLIFRASNLESGVPDRFSGSGSGTDFTLTISSLQAEDVAVYYCQQSSEDPWTFGQGTKLEIKR				110 nM	10.2 nM	10.2 nM
humanized anti-TfR Fab 5H12 VH5 (C33Y)/Vk3 (Fab, V domains shown) VH: QVQLVQSGAEVKKPGASVKVSCKASGYSFTDYYINWVRQAPGQGLEWMGWIYPGSGNTRYSERFKGRVTITRDTSASTAYMELSSLRSEDTAVYYCAREDYYPYHGMDYWGQGTLVTVSS VL: DIVLTQSPDSLAVSLGERATINCRASESVDGYDNSFMHWYQQKPGQPPKLLIFRASNLESGVPDRFSGSGSRTDFTLTISSLQAEDVAVYYCQQSSEDPWTFGQGTKLEIKR	0.69 nM	2.1 nM	2.1 nM			
humanized anti-TfR Fab 5H12 VH5 (C33Y)/Vk3 conjugated to DMPK-targeting oligonucleotide ASO300 (Fab, V domains shown, Fab conjugated to oligonucleotide ASO300; chain and residue not stated, Fab-oligonucleotide conjugate; The protein chains are those of the unconjugated Fab) VH: QVQLVQSGAEVKKPGASVKVSCKASGYSFTDYYINWVRQAPGQGLEWMGWIYPGSGNTRYSERFKGRVTITRDTSASTAYMELSSLRSEDTAVYYCAREDYYPYHGMDYWGQGTLVTVSS VL: DIVLTQSPDSLAVSLGERATINCRASESVDGYDNSFMHWYQQKPGQPPKLLIFRASNLESGVPDRFSGSGSRTDFTLTISSLQAEDVAVYYCQQSSEDPWTFGQGTKLEIKR				33.4 nM	2.3 nM	
humanized anti-TfR Fab 5H12 VH5 (C33Y)/Vk4 conjugated to DMPK-targeting oligonucleotide ASO300 (Fab, V domains shown, Fab conjugated to oligonucleotide ASO300; chain and residue not stated, Fab-oligonucleotide conjugate; also called 5H12 (VH4-C33Y/Vk4) conjugate) VH: QVQLVQSGAEVKKPGASVKVSCKASGYSFTDYYINWVRQAPGQGLEWMGWIYPGSGNTRYSERFKGRVTITRDTSASTAYMELSSLRSEDTAVYYCAREDYYPYHGMDYWGQGTLVTVSS VL: DIVMTQSPDSLAVSLGERATINCRASESVDGYDNSFMHWYQQKPGQPPKLLIFRASNLESGVPDRFSGSGSGTDFTLTISSLQAEDVAVYYCQQSSEDPWTFGQGTKLEIKR				23.7 nM	3.3 nM	13.9 nM
